Numbering of substitutions follows the chain as printed. Names may count otherwise.

T1: EsCas13d, nuclease-dead (Eubacterium siraeum, UniProt B0MS50, R295A;H300A;R849A;H854A)
T1 sequence: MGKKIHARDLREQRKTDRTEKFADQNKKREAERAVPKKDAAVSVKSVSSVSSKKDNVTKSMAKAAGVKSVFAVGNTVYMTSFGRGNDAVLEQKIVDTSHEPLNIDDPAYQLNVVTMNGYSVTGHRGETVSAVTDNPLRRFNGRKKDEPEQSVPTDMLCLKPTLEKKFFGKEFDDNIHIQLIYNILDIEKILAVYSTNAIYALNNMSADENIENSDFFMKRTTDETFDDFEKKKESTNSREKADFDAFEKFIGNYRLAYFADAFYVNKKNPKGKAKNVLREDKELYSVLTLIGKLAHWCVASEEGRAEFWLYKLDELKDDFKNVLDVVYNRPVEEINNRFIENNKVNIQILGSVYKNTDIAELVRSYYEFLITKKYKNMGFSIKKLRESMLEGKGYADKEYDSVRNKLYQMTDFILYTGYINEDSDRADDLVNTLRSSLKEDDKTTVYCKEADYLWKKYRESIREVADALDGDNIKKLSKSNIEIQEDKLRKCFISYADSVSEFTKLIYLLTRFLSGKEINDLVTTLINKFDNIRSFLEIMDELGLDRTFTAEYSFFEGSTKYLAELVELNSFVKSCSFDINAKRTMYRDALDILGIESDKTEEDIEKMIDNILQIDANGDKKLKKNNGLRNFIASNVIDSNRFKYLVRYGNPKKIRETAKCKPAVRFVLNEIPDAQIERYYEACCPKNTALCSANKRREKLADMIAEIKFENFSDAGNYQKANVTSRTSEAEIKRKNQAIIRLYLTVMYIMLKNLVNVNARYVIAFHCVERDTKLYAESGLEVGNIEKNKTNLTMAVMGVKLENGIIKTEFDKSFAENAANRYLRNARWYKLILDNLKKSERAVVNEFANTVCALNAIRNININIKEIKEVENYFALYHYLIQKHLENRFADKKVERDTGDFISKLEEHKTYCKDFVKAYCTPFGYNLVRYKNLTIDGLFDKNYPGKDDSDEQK

B1: target 1 U19A,C22U (mixed)
RNA 1: CACCCGUGCAAAAAUGCAGGGGUCUAAAACUGAGCGGAUAACCUCUCUAUGG
RNA 2: GGGAAUGGAUCCACAUCUACGAAUUCGUAUCAAAGAGAGGUUAUCCGCUCACCGAGAUCGGAAGAGCACACGU
B2: target 1 U10A,G12U (mixed)
RNA 1: B1 RNA 1
RNA 2: B1 RNA 2 with U30C, A33U, G40U, U42A
B3: target 1 insC 3' of 20,insC 3' of 8 (mixed)
RNA 1: B1 RNA 1
RNA 2: GGGAAUGGAUCCACAUCUACGAAUUCGUACCACUAGAGAGGUUAUCCCGCUCACCGAGAUCGGAAGAGCACACGU
B4: target 1 U10A,A20U (mixed)
RNA 1: B1 RNA 1
RNA 2: B1 RNA 2 with U30C, A32U, A33U, U42A
B5: target 1 A9C,U10A (mixed)
RNA 1: B1 RNA 1
RNA 2: B1 RNA 2 with U30C, A33U, U42A, A43C
B6: target 1 insA 3' of 11,insA 3' of 7 (mixed)
RNA 1: B1 RNA 1
RNA 2: GGGAAUGGAUCCACAUCUACGAAUUCGUACCAUAGAGAGGUAUAUCACGCUCACCGAGAUCGGAAGAGCACACGU
B7: target 1 U10C,G15A (mixed)
RNA 1: B1 RNA 1
RNA 2: B1 RNA 2 with U30C, A33U, G37A, U42C
B8: target 1 insU 3' of 6,insA 3' of 6 (mixed)
RNA 1: B1 RNA 1
RNA 2: B6 RNA 2 with A42U, U43A, A44U, U45C, A47U, C48A
B9: target 1 C2G,G12U (mixed)
RNA 1: B1 RNA 1
RNA 2: B1 RNA 2 with U30C, A33U, G40U, C50G
B10: target 1 insU 3' of 21,insA 3' of 5 (mixed)
RNA 1: B1 RNA 1
RNA 2: B3 RNA 2 with A32U, C33A, C48G, G49A
B11: target 1 insC 3' of 15,insC 3' of 11 (mixed)
RNA 1: B1 RNA 1
RNA 2: B6 RNA 2 with A38C, G39A, U41G, A42U, U43C, A44U, U45A, C46U, A47C
B12: target 1 C2G,C21A (mixed)
RNA 1: B1 RNA 1
RNA 2: B1 RNA 2 with U30C, C31A, A33U, C50G
B13: target 1 C4G,G5A (mixed)
RNA 1: B1 RNA 1
RNA 2: B1 RNA 2 with U30C, A33U, G47A, C48G
B14: target 1 G5U,G15A (mixed)
RNA 1: B1 RNA 1
RNA 2: B1 RNA 2 with U30C, A33U, G37A, G47U
B15: target 1 insU 3' of 4,insA 3' of 2 (mixed)
RNA 1: B1 RNA 1
RNA 2: B6 RNA 2 with A42U, U43A, A44U, U45C, A47G, G49U, C50U, U51C, C52A
B16: target 1 insU 3' of 15,insA 3' of 6 (mixed)
RNA 1: B1 RNA 1
RNA 2: B6 RNA 2 with A38U, G39A, U41G, A42U, A47C, C48A
B17: target 1 insU 3' of 12,insG 3' of 11 (mixed)
RNA 1: B1 RNA 1
RNA 2: B6 RNA 2 with A42U, U43G, A44U, U45A, C46U, A47C
B18: target 1 insG 3' of 10,insA 3' of 5 (mixed)
RNA 1: B1 RNA 1
RNA 2: B6 RNA 2 with A42U, U43G, A47C, C48G, G49A
B19: target 1 insU 3' of 21,insU 3' of 5 (mixed)
RNA 1: B1 RNA 1
RNA 2: B3 RNA 2 with A32U, C33A, C48G, G49U
B20: target 1 insU 3' of 13,insU 3' of 4 (mixed)
RNA 1: B1 RNA 1
RNA 2: B6 RNA 2 with G40U, U41G, A42U, A47C, C48G, G49C, C50U
B21: target 1 del15 (mixed)
RNA 1: B1 RNA 1
RNA 2: GGGAAUGGAUCCACAUCUACGAAUUCGUACCAUAGAAGGUUAUCCGCUCACCGAGAUCGGAAGAGCACACGU
B22: target 1 insU 3' of 20,insU 3' of 15 (mixed)
RNA 1: B1 RNA 1
RNA 2: B3 RNA 2 with C33U, A39U, G40A, U42G, A44U, U45A, C46U
B23: target 1 A9U,G17C (mixed)
RNA 1: B1 RNA 1
RNA 2: B1 RNA 2 with U30C, A33U, G35C, A43U
B24: target 1 insU 3' of 13,insG 3' of 6 (mixed)
RNA 1: B1 RNA 1
RNA 2: B6 RNA 2 with G40U, U41G, A42U, A47C, C48G
B25: target 1 insU 3' of 4,insC 3' of 1 (mixed)
RNA 1: B1 RNA 1
RNA 2: GGGAAUGGAUCCACAUCUACGAAUUCGUACCAUAGAGAGGUUAUCCGCUUCACCCGAGAUCGGAAGAGCACACGU
B26: target 1 A9C,G12C (mixed)
RNA 1: B1 RNA 1
RNA 2: B1 RNA 2 with U30C, A33U, G40C, A43C
B27: target 1 insA 3' of 19,insG 3' of 19 (mixed)
RNA 1: B1 RNA 1
RNA 2: B6 RNA 2 with G40A, U41G, A42G, A44U, U45A, C46U, A47C
B28: target 1 insU 3' of 20,insA 3' of 12 (mixed)
RNA 1: B1 RNA 1
RNA 2: B3 RNA 2 with C33U, U42A, A44U, U45A, C46U
B29: target 1 del8,del18 (mixed)
RNA 1: B1 RNA 1
RNA 2: GGGAAUGGAUCCACAUCUACGAAUUCGUACCAUGAGAGGUUACCGCUCACCGAGAUCGGAAGAGCACACGU
B30: target 1 U3C,C4A (mixed)
RNA 1: B1 RNA 1
RNA 2: B1 RNA 2 with U30C, A33U, C48A, U49C
B31: target 1 C2U,C7G (mixed)
RNA 1: B1 RNA 1
RNA 2: B1 RNA 2 with U30C, A33U, C45G, C50U
B32: target 1 insG 3' of 3,insU 3' of 2 (mixed)
RNA 1: B1 RNA 1
RNA 2: B25 RNA 2 with U50G, A52U, C53A

The target of this data set is T1, EsCas13d, nuclease-dead. The data set is described as follows: crRNA (strand 1, pre-loaded); Mg2+; 40 mM Tris-HCl pH 7.5, 150 mM NaCl, 6 mM MgCl2, 1 mM DTT, 0.1% Tween-20, 0.2 mg/ml BSA; 25 C; 10 min per concentration, then washed. The conditions noted are these: tags: His6-TwinStrep-SUMO cleaved; N-terminal SNAP kept (SNAP-Surface 488); label: 3' end held by stalled T7 RNA polymerase.
In turn, B1 came in with a Kd of 70 ± 19 nM.

On to B2, for which binding was put at a Kd of 8.6 ± 0.8 nM.

In turn, B3 registered a Kd of 15.2 ± 1.7 nM.

As for B4, the affinity, expressed as Kd, was 87 ± 13 nM.

In turn, B5 showed a Kd of 13.9 ± 0.8 nM. Against the preceding molecule, the Kd is about 6.3-fold lower.

B6 yielded a Kd of 14.3 ± 0.7 nM.

The molecule B7 gave a Kd of 31.3 ± 1.3 nM.

Consider B8, for which the Kd was 13.8 ± 1.3 nM.

Regarding B9, the Kd is 7.14 ± 0.3 nM. This Kd is about 1.9-fold lower than that of the molecule before.

In turn, B10 gave a Kd of 28 ± 6 nM. This Kd is about 3.9-fold higher than that of the molecule before.

Regarding B11, the Kd is 36.9 ± 3.4 nM.

B12 yielded a Kd of 36 ± 8 nM.

B13 registered a Kd of 83 ± 17 nM.

As for B14, binding was put at a Kd of 16.5 ± 1.3 nM.

B15 returned a Kd of 7.7 ± 0.6 nM.

In turn, B16 came in with a Kd of 21.4 ± 2 nM.

Molecule B17 had a Kd of 10.8 ± 0.7 nM.

Molecule B18 had a Kd of 30.5 ± 3.4 nM.

The molecule B19 yielded a Kd of 34 ± 7 nM.

Take B20: the dissociation constant Kd was found to be 21 ± 2.6 nM.

Regarding B21, the dissociation constant Kd was 8.96 ± 0.33 nM.

Molecule B22 returned a Kd of 19.1 ± 1.6 nM. This Kd lies about 2.1-fold higher than the previous one.

Regarding B23, the Kd is about 90 nM.

In turn, B24 registered a Kd of 25 ± 5 nM.

Molecule B25 returned a Kd of 16.8 ± 1.8 nM. This Kd and that of the molecule before are within 1.5-fold of each other.

Consider B26, for which the Kd stood at 23.1 ± 2.1 nM.

B27 displayed a Kd of 8.62 ± 0.31 nM.

With B28, binding was put at a Kd of 33.3 ± 2.5 nM.

Molecule B29 showed a Kd of 75 ± 10 nM.

The molecule B30 gave a Kd of 12.1 ± 1.2 nM.

In the case of B31, the Kd was 8.54 ± 0.22 nM. This Kd and that of the molecule before are within 1.5-fold of each other.

Take B32: binding was characterised by a dissociation constant (Kd) of 10.1 ± 0.4 nM.

As usually defined, the Kd is a measure of binding affinity in units of concentration. Lower therefore signals higher affinity.

The values above are taken from publication PMC10786891, “Massively parallel profiling of RNA-targeting CRISPR-Cas13d”.
